In PMC11945409 one finds stoichiometry N, stoichiometry N (gp49 per gp48) and stoichiometry N (copies in the head) data, which are given here for ten substances.

Assay [1] concerns the target adaptor protein gp45 of siphophage T1 (phage T1 (ATCC 11303-B1)). Kind of assay: cryo-EM structure; head-connector complex of purified mature T1 virions; asymmetric reconstruction 8 Å; local reconstruction of the portal-adaptor complex 3.6 Å (twelvefold symmetry) and of the stopper-terminator-tube complex 3.6 Å (sixfold symmetry).
Assay [2] deals with cement protein (CP) gp48 of siphophage T1 (phage T1 (ATCC 11303-B1)). Kind of assay: cryo-EM structure; icosahedral head of purified mature T1 virions (assembled in infected E. coli) in phage buffer (50 mM NaCl, 10 mM MgCl2, 10 mM Tris-HCl, pH 7.6); icosahedral reconstruction 4 Å, local reconstruction of the fivefold region 3.5 Å.
For assay [3], the target named is cement protein (CP) gp49 of siphophage T1 (phage T1 (ATCC 11303-B1)). The description is as above.
The target in assay [4] is central fiber protein gp33 of siphophage T1 (phage T1 (ATCC 11303-B1)). Kind of assay: cryo-EM structure; tail tip of purified mature T1 virions (laboratory-adapted, no lateral fibers); 6.1 Å, after local refinement 4.3 Å, threefold symmetry imposed.
Assay [5] concerns the target distal tail protein gp37 of siphophage T1 (phage T1 (ATCC 11303-B1)). The description is as above.
Assay [6] deals with insertion protein gp34 of siphophage T1 (phage T1 (ATCC 11303-B1)). The description is as above.
Assay [7] deals with major capsid protein (MCP) gp47 of siphophage T1 (phage T1 (ATCC 11303-B1)). Kind of assay: cryo-EM structure; icosahedral head of purified mature T1 virions (assembled in infected E. coli) in phage buffer (50 mM NaCl, 10 mM MgCl2, 10 mM Tris-HCl, pH 7.6); icosahedral reconstruction 4 Å, local reconstruction of the fivefold region 3.5 Å.
For assay [8], the target named is portal protein gp52 of siphophage T1 (phage T1 (ATCC 11303-B1)). Kind of assay: cryo-EM structure; head-connector complex of purified mature T1 virions; asymmetric reconstruction 8 Å; local reconstruction of the portal-adaptor complex 3.6 Å (twelvefold symmetry) and of the stopper-terminator-tube complex 3.6 Å (sixfold symmetry).
Assay [9] deals with stopper protein gp44 of siphophage T1 (phage T1 (ATCC 11303-B1)). The description is as above.
The target in assay [10] is tail terminator protein gp42 of siphophage T1 (phage T1 (ATCC 11303-B1)). The description is as above.
The target of assay [11] is tail tube protein (TTP) gp41 of siphophage T1 (phage T1 (ATCC 11303-B1)). Kind of assay: cryo-EM structure; tail tube of purified mature T1 virions; 4.1 Å, sixfold symmetry imposed.

Several values for one entry are separate records, joined by “and”; a condition that tells them apart may be missing. Equal values may be shown once.

For orientation: stoichiometry N means a count of units in the complex or per binding partner. “adaptor protein gp45 of siphophage T1 (natural protein)”: the stoichiometry N in assay [1] worked out at 12.
Turning to “cement protein (CP) gp49 of siphophage T1 (natural protein)”, the stoichiometry N (gp49 per gp48) in assay [2] turned out to be 2. In assay [3], this substance gave a stoichiometry N of 3.
On to “central fiber protein gp33 of siphophage T1 (natural protein)”, for which the stoichiometry N in [4] is 3.
On to “distal tail protein gp37 of siphophage T1 (natural protein)”, for which the stoichiometry N in assay [5] amounted to 6.
“insertion protein gp34 of siphophage T1 (natural protein)” came in with a stoichiometry N in assay [6] of 3.
As for “major capsid protein (MCP) gp47 of siphophage T1 (natural protein)”, in assay [7], the stoichiometry N was 5 and 6; the stoichiometry N (copies in the head) worked out at 415.
“portal protein gp52 of siphophage T1 (natural protein)” returned a stoichiometry N in [8] of 12.
Turning to “stopper protein gp44 of siphophage T1 (natural protein)”, the stoichiometry N in assay [9] turned out to be 6.
In the case of “tail terminator protein gp42 of siphophage T1 (natural protein)”, the stoichiometry N in [10] was found to be 6.
In turn, “tail tube protein (TTP) gp41 of siphophage T1 (natural protein)” registered a stoichiometry N in assay [11] of 6.
